The values below come from US6610297B1, “Peptide immunogens for vaccination against and treatment of allergy” (Novartis AG, priority 1996, dated 2003).

The target in one assay is human IgM (Homo sapiens, UniProt P01871). Kind of assay: Isotype specificity ELISA of sera of immunized rabbits: IgM. The format is in vivo. Conditions: FIG. 12; serum 1:50. The protocol: The isotype specificity of the anti-human IgE immune response in the immunized rabbits is monitored by ELISA: microtiter plate wells are each coated with 3 μg of human IgE (SUS-11), IgA, IgG, and IgM, respectively, and incubated with 100 μl of serum samples, diluted 1:50 with ELISA incubation buffer. Rabbit antibodies bound by the immobilized human antibodies are detected by incubation with goat garIgG-HRP. The measured OD405 values are corrected by the read-out obtained with 1:50 diluted pre-immune serum of each corresponding rabbit, diluted 1:50. The data given in FIG. 12 represents mean values of duplicate measurements.
Sequence of human IgM (P01871 1-433 limits assumed): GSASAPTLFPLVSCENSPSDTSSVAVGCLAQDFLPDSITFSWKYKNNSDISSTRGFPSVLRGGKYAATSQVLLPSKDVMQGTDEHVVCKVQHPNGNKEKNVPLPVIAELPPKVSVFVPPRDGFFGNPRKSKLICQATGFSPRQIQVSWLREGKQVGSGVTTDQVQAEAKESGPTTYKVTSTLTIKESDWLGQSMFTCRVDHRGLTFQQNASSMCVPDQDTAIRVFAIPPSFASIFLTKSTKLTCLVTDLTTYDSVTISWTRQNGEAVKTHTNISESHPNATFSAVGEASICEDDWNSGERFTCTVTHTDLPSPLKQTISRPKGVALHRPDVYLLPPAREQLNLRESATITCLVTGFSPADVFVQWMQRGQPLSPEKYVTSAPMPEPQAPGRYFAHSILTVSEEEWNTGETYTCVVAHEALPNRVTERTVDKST
Sequence of human IgM (P01591 23-159 partner): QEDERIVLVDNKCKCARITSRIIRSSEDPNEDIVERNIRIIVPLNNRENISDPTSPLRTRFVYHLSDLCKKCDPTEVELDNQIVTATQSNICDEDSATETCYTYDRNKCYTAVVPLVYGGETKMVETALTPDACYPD
In general terms: An ELISA detects its analyte on a solid surface through an enzyme-linked reagent.

A further assay deals with T1, FcεRI (Homo sapiens, UniProt P12319).
T1 sequence (P12319 26-257): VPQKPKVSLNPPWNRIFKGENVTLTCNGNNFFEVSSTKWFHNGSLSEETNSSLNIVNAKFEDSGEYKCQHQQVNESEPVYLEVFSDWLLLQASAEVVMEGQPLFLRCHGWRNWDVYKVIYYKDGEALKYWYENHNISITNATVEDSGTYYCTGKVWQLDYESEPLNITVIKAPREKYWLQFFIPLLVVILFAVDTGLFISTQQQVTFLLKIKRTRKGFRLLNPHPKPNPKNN
Conditions: read-out: affinity of IgE for FcεRI (Kd); cited from earlier work.

pKd: −log10 of the molar value.

In the case of cyclic GEFCRRHNYGFWVCGDPA-KLH [SDS214], the “Recognition of human IgM by serum of immunized rabbit” value in the assay with human IgM is “partial recognition of human IgM”.
On to immunoglobulin E [IgE], for which the negative-log Kd (pKd) on FcεRI was around 10.00.

The term pKd denotes −log10 of the Kd, conventionally taken in molar units.
